Results reported in the supplement of paper PMC9170038.

Test system: K4 kissing-loop RNA reporter
Assay: apparent KD of K4 kissing-loop reporter; higher = weaker reporter binding
Conditions: Eterna round: R107
Protocol: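 RNA-MaP round R107: designed RNA switches with theophylline, tryptophan, arginine or FMN aptamers are transcribed on-chip within common flanks. They are titrated with a labelled K4 kissing-loop RNA reporter in RNA-MaP buffer (100 mM Tris pH 7.5, 80 mM KCl, 4 mM MgCl2), without ligand or with the indicated ligand. Median apparent KD per design.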

[1] = input ligand: theophylline 20 uM
[2] = input ligand: tryptophan 2.4 mM
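Further: bound reporter read as fluorescence of individual clusters on recovered sequencing chips by microscopy, with normalized cluster intensities fitted with a binding model.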

Sequence | apparent KD of K4 kissing-loop reporter (input ligand: FMN 200 uM) [nM] | apparent KD of K4 kissing-loop reporter (input ligand: arginine 13.2 mM) [nM] | apparent KD of K4 kissing-loop reporter (input ligand: none) [nM] | apparent KD of K4 kissing-loop reporter [1] [nM] | apparent KD of K4 kissing-loop reporter [2] [nM]
UUUUUAUGCAGUGAUGUUGCUAAUAUAACAGAGGAUAUGCAUUAAAGCAGAAGGCUGAAAUACUAUACUUUAAUAAAUUAAAUUU [JR_SSFMNA_Sub013] | 94.2 | 136 | 107 | 144 | 82.7
CCUAUCUCAUACGAUACCAGUCUACGAUAUUUUAUCGUUGCCAUCACCGAGUGAUGUUCGGACCCUUGGCAGCGUAUGGGAUAGG [Ex Theophylline B K4 5] | 340 | 277 | 355 | 544 | 346
AGACUACUGAUAGGAUAUAACAUCCUAGUCGUAUACCGAAAGGUAUACGAAACCCUUCUAGUGAUGUUAGAAGGGUCGGUAGUCA [Omei KL FMN B Exc B v9] | 79.8 | 67.1 | 80.9 | 59.6 | 69.4
UAAAUAAUAAAACGAGUGAUGUUCGACGAUACCAGCCUCGAUAGAGGCCCUUGGCAGCGUAAAUGAUCACAAAGCCAAGGUAUAA [#01 K4 Theophylline A Exclusion] | 165 | 183 | 159 | 199 | 138
GAUUUAGAGGCGGCCGCCACUAGUGAUGUUAGUGAUGUUUGAUAGGGAAUAUAUCAGCGAGUAGAUAGGACCGGGCCAGAUGGAG [gtggbmullin] | 248 | 183 | 203 | 189 | 167
CUUGGUCUACGAAGGAGCGCCGUGCAGUGAUGUUGCAGUCAGAUCGAGUGAUGUUUCGGGCGGCAGGUAGGUCGCGUGGCCCUUU [Excusion Arginine B GF 26] | 633 | 455 | 613 | 587 | 579
UGUUUUUACUGAAGGAGCGGCAAUUGAUACGUAGAUAUAGUGAUGUUAUAUAAGAUAGAGAGCCAGGUAGGUCGCAGAUUUUUUC [ExArgB.Y] | 179 | 201 | 164 | 172 | 136
UUUUUGGAGAAUUAUAGUGAUGUUAUGAAGGAGGAUAUCUGGAGAUGGAGAAGGCCUAGUGGCUCAGCCCUGGAGGGUGGGUGGG [ExFMNA.aB] | 822 | 562 | 705 | 556 | 572
CGAGUGAUGUUCGUUCGUUUAUUUCGGUGACAGGAUAUGCGGAAACGCAGAAGGGUCACCUUUGAGUUACCGGAAUUAACGUUAU [Ex FMN A 29] | 564 | 453 | 623 | 558 | 455
UCGGCAAAGUCGGCCGCCACUCCGGGCCCUAUAAAUGGGCGCAGUGAUGUUGCGGCUAGGCCUCUGAGGACCGGGACUUUGUAAA [Atordied] | 185 | 63.1 | 54.5 | 61.7 | 219
GCGCAUGUUAAAGGAUAUAGCAGGUGAUACAAGAAAGUGAGUGAUGUUUAUGUAGAUGAUGAUAUGUUAGAAGGUUAACAAGCGC [abcdefghijklmnop] | 693 | 639 | 842 | 788 | 600
GAGGAUUGAACGGCCGCCACUGCGCGCAGCUGCAAUCGAGUGAUGUUCCAUCAGUUGUCCAGUUCCAGGACCGGGUUCCGAUGCC [theeternabot_exclusion_KL_Trp_B_12] | 499 | 245 | 401 | 535 | 471
GCAGUGAUGUUGCGGAUGUACAGUGGAGUGCGAGGACCGGUACGGCCGCCACUCGUACAGAACAAGCUAAUAUAUCGAUAGGUGA [X] | 203 | 242 | 263 | 282 | 157
GCGGCCCAGCCGGAUACCAGUGACCCGCUGGGAACCGCGGGCCCAGAGUGAUGUUCGGGACACCCUUGGCAGCCGCCUGGGACGC [#2 Same State - Theophylline B Attempt #17 (HarryS)] | 588 | 126 | 546 | 334 | 193
AAGUGAUGUUGUAGUGAUGUUGUGAUGUUGCAGGAUAUAUAGUGAUGUAGAAGGGUAUGUACAGAUUUUUUUUUUGAGUGAUGUU [ffdcmullin] | 112 | 45.5 | 73.8 | 59 | 81.4
CGUAGCAGAUGAAGGAGCGGCUACCUGUAUCAGGCAACUGCCUGAGUGAUGUUCAGGUAUAGCCAGGUAGGUCGCAUCUGCUACG [Arg B Ex t9b] | 240 | 206 | 214 | 211 | 212
CGUUUAUAGGAGGAUACCAGUACGGAUAAAGUACGUUAAUAGUAGAGUGAUGUUCUAAAGUACCCUUGGCAGCUUAGAGUGAGUG [ExTheophylB.N] | 100 | 104 | 106 | 121 | 73.6

Sequence | apparent KD of K4 kissing-loop reporter (input ligand: FMN 200 uM) [nM] | apparent KD of K4 kissing-loop reporter (input ligand: arginine 13.2 mM) [nM] | apparent KD of K4 kissing-loop reporter (input ligand: none) [nM] | apparent KD of K4 kissing-loop reporter [1] [nM] | apparent KD of K4 kissing-loop reporter [2] [nM]
AGAGUUAAUUAGUCUUUUUUCACAUUAAGUCAGGAUAUCGUAUUUUCGAGAAGGGACACAUGCUAGUGAUGUUAGCUAUUUCUCA [JR_Nu3_ExcFMNA_Sub020] | 60.1 | 103 | 67.5 | 114 | 59.6
GGUUUUAACCGCAGUGAUGUUGCGUUGAAACGAGGACCGGUACGGCCGCCACUCGAAAAGAAGCGGCCAAAUUAAAAUCGUAAAG [Exclusion Tryptophan A GF 23] | 129 | 162 | 144 | 164 | 114
CCUAUCUCAUACGAUACCAGUCAAUUAAAACGAGUGAUGUUCGAAAAUUUGCCAUAUAAUGACCCUUGGCAGCGUAUGGGAUAGG [Ex Theophylline B K4 7] | 187 | 196 | 194 | 197 | 164
UUACAGGAACAAGGAUAUGGCGUUGUAGUGAUGUUACAGCGAAGAGCUCCACGCGAUCGGACAAAACCAGAAGGUGUAUGGAAUC [theeternabot_exclusion_KL_FMN_B_42] | 155 | 108 | 127 | 116 | 112
ACGAAUCCAGCGGCCGCCACUAUUCGAUGAGUGAUGUUUAGGAGUAGAUCAUACCGCCGUGGUAAUAGGACCGGGCUCUUUGUAG [theeternabot_exclusion_KL_Trp_B_36] | 289 | 129 | 201 | 193 | 207
UACACGACUCGUGUAAACCGAGGUAACAGGCAGGAUAUGUAACGGAACAGAAGGGCCAUGUAGCGUGUCCAGUGAUGUUGGAUGC [Betilare] | 199 | 166 | 186 | 180 | 173
AUGCCUAUGACGGCCGCCACUGAGAGUCAGUGAUGUUGACUCGAUACAGCUGAUUAGCAGCUAAUCAGGACCGGGUCAUACACAU [Tryp B SS t3] | 243 | 158 | 244 | 245 | 123
UGGUUAAGCAGUGAUGUUGCAAGUGAUGAUACCAGUUAAGAAGAGAACCCUUGGCAGCAUAAAGUGCGCUCUGAUGAGUGUGCUU [whbob_SS_Theo_A_w55] | 165 | 130 | 146 | 176 | 165
UUAGCUCUAUAGAGCAAGAGGUAUACUGAUACCAGAGGCUAUAGCCUCCCUUGGCAGCGGAACGAGUGAUGUUCGAAACCUCAUU [AK5 SS Theophylline A] | 754 | 898 | 940 | 799 | 526
AAUAAUCUAGGUGAUACCAGCUCAACAUGAGUGAUGUUCAUGAAAUAAUGUAGAGUUGAGAGCCCUUGGCAGCACCUAGAUAAUA [KL-SSTheoB5] | 264 | 222 | 239 | 178 | 240
UGGAGUUGACGAAAAGUCAACUCCCGAGAAGGAGCGGACGAAAGUCCAGGUAGGUCGCUCGCUACCAGUGAUGUUGGUACGUAAA | 107 | 143 | 116 | 139 | 101
UGAACUGUCUGCGAUACCAGCUAAGGAGUGAUGUUCCGGCUCGACGAAACGUCGAGCCAUAGCCCUUGGCAGCGCAGACAGUUCA [#28 K4 Theophylline B Same State] | 387 | 160 | 334 | 721 | 272
GAUGUUUGCCGAAGGAGCGAGUAUUCGCCAGUGAUGUUGGUGAGAUAUACACGUAUCAGUGCUCAGGUAGGUCGCGGCGCUUGUU [Same State Arginine B GF 27] | 123 | 107 | 129 | 135 | 117
UGACUGGACUGAAGGAGCGCUAAACUCCUAGUGAUGUUAGGAUAACGAGACAAAGUCUCGAGGCAGGUAGGUCGCAGUCUAGUCU | 128 | 134 | 131 | 137 | 128
AAGCAGUCACUCGUAACCAUCGAAGAUGGUCGAGGACCGGUACGGCCGCCACUCGGAGUGAUGUUCCGAAGACUGCAAAAUAAAA [#SwitchBubble 12] | 237 | 238 | 299 | 292 | 607
AGUCCACUCUAAAGAGUGGACCUAAGGGAUACCAGUGAUGUUGGUCACCCUUGGCAGCCCUCUGUCAUCGAUAAAGAUGGCAGUA | 119 | 101 | 118 | 130 | 131
